Target: the molecule itself
Test: SEC-MALS; oxidizing conditions: 20 mM Tris-HCl, pH 7.5, 150 mM NaCl, without DTT; S-200 10/30 column; 100 μl at 4 mg/ml injected; 10°C

B1: HsCEP135 82–144 (amino acids 82–144 of human CEP135, centrosomal protein of 135 kDa) (domain or fragment, UniProt Q66GS9 82-144, looked up)
chain: NNELYLELMKLREHSDQHVKELKTSLKKCARETADLKFLNNQYAHKLKLLEKESKAKNERIQQ
notes: coiled-coil fragment with one cysteine (Cys110) and one methionine per monomer; Under oxidizing conditions Cys110 forms a homotypic disulfide bridge between the two chains of the parallel coiled-coil dimer; Calculated molecular weight 7.71 kDa
stoichiometry N: 2

Reference: publication PMC6146289, “Combinatorial use of disulfide bridges and native sulfur-SAD phasing for rapid structure determination of coiled-coils” (Bioscience Reports, 2018)
